Measured values published in the domain aggregation screens of Martell et al. (2025).

Experiment: soluble fraction after stress (log2 fold change); higher = more stays soluble; pooled small domains, quantitative proteomics
Conditions: stress: 75 degC
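Also: 20 min heating vs room temperature control held 20 min.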

Sequence | soluble fraction (log2)
HMSENEIDELRRRFAREAMALMERKGEEVSRTRLAAELSVARARIDAVFPEESDLLEAVTAEWFA | -0.477
HMALPRYFFRTRENGAVLFKTPVNNHQNRLEMHQIAAINIRNETVKPLGDTVLTDEETELIADWMRERKTV | -0.782
HMDHSSLIKKLRLERGLSQKKLAQGISQRSTLASFENNATKISYNILIQYLDRMNVTLEEYQFMLDGNNL | -2.27
HMSDHSSLAGKEGVAVTPLRPAGTAEIDGKRMDVVTMGDYIKAGDHIKVVKVEGNRIIVAKN | 0.0173
HMWVETITTKAGITKYKFQERYTDTYSGKTKRVSVTYTSNSRQAYKLAQAELQKKIDLATNTD | -0.638
HMLEEIDYPEEQLQLLFAWSRDHVQSTPPGLPVVDDHVWHILVRGYGATDQRTEAFALLASYAGFP | 0.135
HMYLLPVTSTELKGNYPNPFNPETTISFDLKDAERVNLSIYNLKGQLVRTLVNSDLPIGRHRLIWDGNDS | -0.622
HMDGRVQATAEKLRAALDRLARSSVGSPMIERQLTVAALAREARVGRNAIYANHRDILDELIRVRQQRRA | 0.155
HMPVLDETVPAALDGERIDRVVALLADVSRNRAGIAIAAGSVRLDGAVVTQRSRKVRADEELVVDGLER | 0.107
HMGLTRRAQLEVADANLKRLYPGMHQSWVTAIAEYLHSSYWRYINSLEPEYAASIQRVYEQHIDAM | -0.0229
HMEILPAYRDIKKEALLGNINAEFKYVNLLLEHNYIEQAFNIIEDMKTRVDDNPEFEELKSRVADAYLMY | -1.56
HMETGGLAQEAERELALLQEQIAHHEALYRKGTPEISDGAFDELFDRYQELADSLGVPADERIDRA | 0.155
HMGDWEKALAQFAAHRLANGSTAFLDEMYPIFERILLQAALNKTGGRKIEAAELLGWGRNTLTRKLKELGF | -2.2
HMAIHTSVTEHGEHDLTVRMEMEQVFAIEMAVVSHEQATMLERTFKANAEAIYQKLLGVMTQEYP | -2.42
HMSSEASALRGWLQTSQYQGSVTLFANALNVPLKTVEDWVYGRSKPSLQHWSQLYEATGLPEYQQ | -0.387
HMGTLPSLAPSGEKTVRLPNLAGWSLRETMEILQKGGLQLLPIGSGISFKQSPPPGTTLNEGDAVTVWF | 0.00884
HMDGASLLDIDGDGKVTPTIDGLLLMRWQFGTRGAALIGGISFPAGALRTTVNAIELHMRRLSETT | -0.699
HMYYNQGILKSGASVYGEPGITSSHRLEIPSGSFVDIVQEKDEWVYYEKNHVNHGWVLRENIYIPSL | 0.149
HMSNWYGTVVKIQPRPNAQAADTAVVKLLDGSEHRFPVWADHLTTIEVGSRLKKLSGGWDPVLMDPEETF | -0.669

Sequence | soluble fraction (log2)
HMIEGEQVRLLRLLERQEGGMLPLGDKSPASDILLLTGMSKKTFKMAVGALYKAQMITMTPTSIKLVK | -3.18
HMNKRKQRINDLMDLIREQPALSIKNLAEMLNVSEMTIRRDMAYLKSNNLLNRAHGMNFLNS | -0.407
HMQDVVFTVDKDQTGAEIGDMLYEKGIISSPTTFRLALRLTGSMDKLQQGYYQIPQNASLRQVIALLQKG | -0.35
HMSEPIYTQLKEILTQKIVNGEFPPGARLPSEYELTELYHISRSTVRLALKELEASGMIVRRRGKGTFVSS | -2.39
HMFQNPSQVVTTRVGELRAAIPTAQQGRITMGVAVVEDANSVRSVLISTSEPRGYLRPGVTLGPGETMV | 0.0661
HMAAVEDLPVKSVNGKKYHYYTVQPKESLYSLSHKLGISRQEIIKYNPGVEDGLKAYEDLLFPYTPK | 0.192
HMNLSSETLSEMEARIGQMGVVELQDRRAYLLQEQEGTQNPSRLKEIADELSAIQKALVALV | 0.705
HMEHIVNELDRKVIDYLQSHYDAKLNDIAQGIGVSKATATKSIRKLVQTGIVHVVGSSGTGTSYNLTE | -0.465
HMSKQIEVPDVTDMTVSDAIDVLQDKGFVVSDEQKEVASSEIEEGRVVRTSPAVGSKRKDGTVVTLYVSI | 0.353
HMTVKVPDLRGKTLAEMQRILDDAGLKYEINDSTFSRTAIPGTVREVIPAPGSEVKLGRILFIAINGF | -2.19
HMGPAAGVVEKYNLAHLSTGEMIRKEIAEGSDFGKMAAGIINKGELLSDEFVVALIENSIEHHKNVDGFLF | -0.195
HMSLSEYLSAPVLEGQRNHALFSAVMQAREQGWDEWQIRTTIGAKAEADGLRHAEIAATIRSAMSREITP | -0.314
HMKYTEEIFNILSRGGFISANSVSSTVKRYYDALEEDFTEYYDYYKGIGFYLEAGNGYYLFTR | -3.41
HMSAVVAPLPGLIQNILVKVGDTVHAGQHVLTMEAMKMENEIQTNRDGIIKDIKVRIGDSVNEGDTLIIL | 0.0725
HMQQNYREMHKVKKGETLFGIARRYEITVDQLIKANPDMNAVGYELKKGDYIFIPYPDGQKP | -0.427
HMRKTLSQEAYEKIKQNLEDGVYQGYINGRQVARDLDIGFTPVREAFLQLQSEGLIRKEDNVGYFV | -0.107
HMLMRKAEVGVESLNLRHGPGTQYKVLEILPGGKSLHYLAEPRRGWVRVTTEEGTTGWTFLKFLKPE | -2.22
HMVDDRPVTGTTLIREWQGRAYEVIVQAGHFEFQGQRYQSLSAIAKVITGTVWNGWAFFGLR | -0.415
HMDTRKKLEQIFKLFDKTGTGMVNIDEFKSVLKLFMEEIDEKFGNYFIAYFDENGDGKIEFEEFADVVL | -0.444
